Source: PMC5714288

Target: pyruvate kinase isoform M2 (PKM2) (human (endogenous in U1 and U937)) (UniProt P14618)
Assay: native gel or EMSA

Chain of pyruvate kinase isoform M2 (PKM2), P14618 1-531 (natural protein; other documents disagree on this pair) (P14618 whole entry, canonical isoform): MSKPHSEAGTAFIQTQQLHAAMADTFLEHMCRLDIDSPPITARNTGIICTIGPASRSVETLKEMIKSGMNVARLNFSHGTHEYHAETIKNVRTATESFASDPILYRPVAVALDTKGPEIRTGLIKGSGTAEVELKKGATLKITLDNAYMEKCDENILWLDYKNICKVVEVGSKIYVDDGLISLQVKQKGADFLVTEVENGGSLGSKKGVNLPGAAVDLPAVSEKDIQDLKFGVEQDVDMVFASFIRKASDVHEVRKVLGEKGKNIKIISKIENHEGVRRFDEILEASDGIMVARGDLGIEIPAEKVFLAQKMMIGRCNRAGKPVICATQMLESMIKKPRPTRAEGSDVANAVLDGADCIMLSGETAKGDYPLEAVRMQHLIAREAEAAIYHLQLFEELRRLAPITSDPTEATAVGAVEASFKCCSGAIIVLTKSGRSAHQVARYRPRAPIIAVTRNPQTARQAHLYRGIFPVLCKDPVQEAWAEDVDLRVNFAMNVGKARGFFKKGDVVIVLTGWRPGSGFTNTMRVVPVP

## pyruvate kinase isoform M2 (PKM2), P14618 1-531 (natural protein; other documents disagree on this pair)
  stoichiometry N: 2
